Consider 4 sequences from US10562947B2, “Compositions and methods for preventing or treating diseases, conditions or processes characterized by aberrant fibroblast proliferation and extracellular matrix deposition” (MOERAE MATRIX, INC., priority 2011, dated 2020).

Experiment in all cases: Kinase Profiling Assay
Holding throughout (type): biochemical
What all share (conditions): 100 μM peptide

The target of one assay is T1, BrSK1(h) (Homo sapiens, UniProt Q8TDC3).
T1 sequence (Q8TDC3 1-778): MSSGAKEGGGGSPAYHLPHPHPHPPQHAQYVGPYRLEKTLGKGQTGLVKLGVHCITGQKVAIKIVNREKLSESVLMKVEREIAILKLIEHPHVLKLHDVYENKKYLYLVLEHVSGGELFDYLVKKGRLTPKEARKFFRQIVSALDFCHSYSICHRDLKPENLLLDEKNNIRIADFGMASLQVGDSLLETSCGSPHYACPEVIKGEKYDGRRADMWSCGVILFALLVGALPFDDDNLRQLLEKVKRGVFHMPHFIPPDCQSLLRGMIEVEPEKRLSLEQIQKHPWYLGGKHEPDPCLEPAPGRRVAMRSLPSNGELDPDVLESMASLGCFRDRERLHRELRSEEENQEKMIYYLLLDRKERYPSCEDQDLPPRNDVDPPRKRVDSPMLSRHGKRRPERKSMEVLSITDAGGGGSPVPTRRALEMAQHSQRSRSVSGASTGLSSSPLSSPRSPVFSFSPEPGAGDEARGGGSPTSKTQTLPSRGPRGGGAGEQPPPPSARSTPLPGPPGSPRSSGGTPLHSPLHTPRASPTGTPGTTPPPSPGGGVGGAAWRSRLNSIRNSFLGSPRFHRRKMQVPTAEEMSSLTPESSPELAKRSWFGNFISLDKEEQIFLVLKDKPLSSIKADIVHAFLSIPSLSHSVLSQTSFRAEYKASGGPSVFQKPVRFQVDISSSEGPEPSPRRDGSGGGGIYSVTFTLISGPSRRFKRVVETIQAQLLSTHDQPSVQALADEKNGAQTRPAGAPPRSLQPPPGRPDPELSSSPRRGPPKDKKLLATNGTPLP
Summed up:
(§1)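 MK2 inhibitory peptides were screened for specificity across a commercial panel of 266 human kinases, and each kinase activity measurement was run in duplicate.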

The target in a further assay is NEK7(h) (Homo sapiens, UniProt Q8TDX7). Summed up:
as §1

The target in another assay is T2, ALK4(h) (Homo sapiens, UniProt P36896).
T2 sequence (P36896 24-505): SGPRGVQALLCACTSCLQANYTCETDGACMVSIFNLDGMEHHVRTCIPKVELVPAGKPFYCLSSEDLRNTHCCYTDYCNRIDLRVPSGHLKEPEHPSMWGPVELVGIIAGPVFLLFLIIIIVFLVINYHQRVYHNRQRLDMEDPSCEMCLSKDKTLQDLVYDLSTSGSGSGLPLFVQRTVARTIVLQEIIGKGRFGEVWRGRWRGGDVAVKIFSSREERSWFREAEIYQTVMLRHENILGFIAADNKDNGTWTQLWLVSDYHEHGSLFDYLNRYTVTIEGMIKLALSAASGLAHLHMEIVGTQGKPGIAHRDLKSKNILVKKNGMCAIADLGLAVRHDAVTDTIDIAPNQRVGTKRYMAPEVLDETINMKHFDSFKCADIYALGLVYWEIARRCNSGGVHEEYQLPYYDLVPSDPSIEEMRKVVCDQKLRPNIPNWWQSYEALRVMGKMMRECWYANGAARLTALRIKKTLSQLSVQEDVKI
In a few lines:
as §1

The target in the next assay is T3, PKCϵ(h) (Homo sapiens, UniProt Q02156).
T3 sequence (Q02156 1-737): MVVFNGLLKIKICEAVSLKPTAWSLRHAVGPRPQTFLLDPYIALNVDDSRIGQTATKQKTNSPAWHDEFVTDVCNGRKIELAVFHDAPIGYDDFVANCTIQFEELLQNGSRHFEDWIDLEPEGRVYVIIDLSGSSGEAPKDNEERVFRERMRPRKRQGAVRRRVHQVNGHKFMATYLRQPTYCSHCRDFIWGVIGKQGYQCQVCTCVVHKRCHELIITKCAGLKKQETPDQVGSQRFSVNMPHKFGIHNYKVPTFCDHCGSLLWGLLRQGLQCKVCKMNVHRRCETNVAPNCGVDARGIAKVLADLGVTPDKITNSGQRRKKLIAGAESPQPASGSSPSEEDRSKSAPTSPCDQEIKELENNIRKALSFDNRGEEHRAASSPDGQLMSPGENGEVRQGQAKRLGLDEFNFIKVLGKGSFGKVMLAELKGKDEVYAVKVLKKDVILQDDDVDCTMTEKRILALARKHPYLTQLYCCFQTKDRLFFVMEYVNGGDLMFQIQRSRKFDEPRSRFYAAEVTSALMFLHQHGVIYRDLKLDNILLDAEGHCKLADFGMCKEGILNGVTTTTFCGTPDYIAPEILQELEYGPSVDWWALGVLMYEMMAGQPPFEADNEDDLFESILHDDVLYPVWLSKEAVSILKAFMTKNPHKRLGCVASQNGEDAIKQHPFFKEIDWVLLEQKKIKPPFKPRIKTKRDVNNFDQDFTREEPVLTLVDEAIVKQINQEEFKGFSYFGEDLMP
In a few lines:
as §1

For a further assay, the target named is T4, MuSK(h) (Homo sapiens, UniProt O15146).
T4 sequence (O15146 24-869): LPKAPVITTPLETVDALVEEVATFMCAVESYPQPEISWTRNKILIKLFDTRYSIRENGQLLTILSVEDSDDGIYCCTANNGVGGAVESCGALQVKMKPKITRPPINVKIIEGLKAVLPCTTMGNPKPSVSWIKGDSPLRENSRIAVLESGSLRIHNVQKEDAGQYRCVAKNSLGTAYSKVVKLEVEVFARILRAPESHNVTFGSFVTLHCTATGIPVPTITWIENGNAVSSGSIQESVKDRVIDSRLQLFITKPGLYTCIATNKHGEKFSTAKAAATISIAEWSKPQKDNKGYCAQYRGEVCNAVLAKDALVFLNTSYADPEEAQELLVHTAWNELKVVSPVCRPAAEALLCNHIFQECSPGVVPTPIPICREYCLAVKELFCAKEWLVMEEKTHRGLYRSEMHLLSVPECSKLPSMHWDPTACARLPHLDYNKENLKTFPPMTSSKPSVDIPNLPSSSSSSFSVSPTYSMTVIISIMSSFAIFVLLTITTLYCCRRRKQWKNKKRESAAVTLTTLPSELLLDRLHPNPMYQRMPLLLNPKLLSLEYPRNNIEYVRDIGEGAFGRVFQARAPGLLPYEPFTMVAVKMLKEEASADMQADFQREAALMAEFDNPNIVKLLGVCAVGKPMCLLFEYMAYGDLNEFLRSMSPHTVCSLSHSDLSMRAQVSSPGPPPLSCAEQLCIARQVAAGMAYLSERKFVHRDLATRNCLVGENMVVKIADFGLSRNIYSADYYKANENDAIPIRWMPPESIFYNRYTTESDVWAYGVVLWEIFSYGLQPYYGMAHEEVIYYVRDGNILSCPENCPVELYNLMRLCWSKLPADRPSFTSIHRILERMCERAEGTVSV
In a few lines: as §1

Chain of NEK7(h) (Q8TDX7 whole entry): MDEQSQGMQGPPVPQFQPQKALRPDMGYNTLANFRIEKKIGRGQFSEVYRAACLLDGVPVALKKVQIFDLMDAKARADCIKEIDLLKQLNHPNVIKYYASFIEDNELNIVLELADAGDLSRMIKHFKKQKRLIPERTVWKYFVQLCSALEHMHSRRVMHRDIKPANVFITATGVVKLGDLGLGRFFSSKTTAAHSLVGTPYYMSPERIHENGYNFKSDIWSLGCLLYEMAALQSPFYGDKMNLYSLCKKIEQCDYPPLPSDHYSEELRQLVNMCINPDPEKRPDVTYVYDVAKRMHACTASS

As to “YARAAARQARAKALNRQLGVA (Mammalian) [MMI-0200]”, the “BrSK1(h) % activity” value with BrSK1(h) amounted to 93%. In addition, in the assay with NEK7(h), the “NEK7(h) % activity” value came to 96%. The “ALK4(h) % activity” value with ALK4(h) worked out at 152%. In the assay with PKCϵ(h), the “PKCϵ(h) % activity” value was 98%.

For “HRRIKAWLKKIKALARQLGVAA (Mammalian) [MMI-0500]”, the “BrSK1(h) % activity” value with BrSK1(h) was determined as 72%. Besides, the “MuSK(h) % activity” value in the assay with MuSK(h) was 27%. Further, in the assay with NEK7(h), the “NEK7(h) % activity” value is 89%. Moreover, the “ALK4(h) % activity” value with ALK4(h) amounted to 81%. Moreover, the “PKCϵ(h) % activity” value with PKCϵ(h) is recorded as 23%.

Regarding KAFAKLAARLYRKALARQLGVAA [MMI-0400], in the assay with BrSK1(h), the “BrSK1(h) % activity” value amounted to 76%. Besides, the “MuSK(h) % activity” value with MuSK(h) is 93%. Moreover, in the assay with NEK7(h), the “NEK7(h) % activity” value was found to be 87%. In the assay with ALK4(h), the “ALK4(h) % activity” value is reported as 130%. Further, the “PKCϵ(h) % activity” value in the assay with PKCϵ(h) worked out at 59%.

FAKLAARLYRKALARQLGVAA [MMI-0300]: the “BrSK1(h) % activity” value in the assay with BrSK1(h) is 67%. Besides, the “MuSK(h) % activity” value with MuSK(h) came out at 93%. Besides, the “NEK7(h) % activity” value with NEK7(h) was determined as 84%. Also, the “ALK4(h) % activity” value with ALK4(h) is 140%. In the assay with PKCϵ(h), the “PKCϵ(h) % activity” value came to 79%.
